Reference: the supplement of paper PMC12042874
± gives the uncertainty stated by the source.

Assay: amyloid nucleation score (Sup35N fusion, yeast selection) (log enrichment); library NNK1; higher = more nucleation; inactive = no reads after selection
Method in brief: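 For the nucleation score, DiMSum gave the log enrichment of output over input reads, centred on the mode score of non-aggregating sequences. Psi-negative yeast expressing Sup35N fused to peptides of 20 random codons were induced with 100 μM copper sulfate for 24 hours and grown 7 days at 30°C on medium lacking adenine and uracil. Input and output plasmid inserts were Illumina-sequenced, and sequences with under 100 input reads were excluded.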

Substance	amyloid nucleation score
EFAKNSFAKNTFAADAWLII	0.802 ± 0.78
EFIIVRRDGLGAVYSVTNAF	1.08 ± 0.7
EFIKWRAIGENSYGKGDMDR	0.387 ± 1
EFKWYFAISDKCYVRLKLIK	0.751 ± 0.45
EFLNSNLLNTYMKLFLIITH	3.36 ± 0.21
EFTGDRQSYFCLQYSCTSLR	-0.096 ± 1.7
EFVVGDKR	-0.311 ± 0.82
EGPMLVCVLVVSTTGIGRGC	1.58 ± 0.59
EGTFLSGEHTFLNLGFSNRG	0.019 ± 0.6
EGTFRLID	0.047 ± 0.3
EGYVK	1.1 ± 0.53
EGYYEPVIVI	0.66 ± 0.47
EHNNFFICVCWSAGTSVRMI	7.992 ± 0.063
EHSPRRGAL	0.063 ± 0.66
EIFSNPSVYHESMK	-0.072 ± 1.2
EITFPRAMWANRTTTMDRIM	-0.036 ± 0.4
EKDVAIFLDLGYFHCTRSST	1.97 ± 0.2
EKWGGGVM	-0.08 ± 0.58
ELEPCDPGF	inactive
ELKSAFCWRARLG	0.197 ± 0.49
ELLCLNL	-0.83 ± 0.73
ELLEILFCSTIVERKNHRRP	2.11 ± 0.11

Substance	amyloid nucleation score
ELLFFYYMSSNCFVFISCSQ	1.59 ± 0.38
ELSSLGTCNCFHIRVSWGYM	0.99 ± 0.37
EMNLSLSVCALFRFIT	-0.56 ± 0.43
EMSINLRNL	0.558 ± 0.16
ENDYITCQMSQSVQNVVVVK	0.647 ± 0.43
EPMMLY	0.333 ± 0.28
EQASVIKDVYFPHILRLRMA	-0.432 ± 0.4
EQQLQRM	inactive
ERDCPYRTMGLRCVNYRFRG	3.64 ± 0.14
ERGII	0.621 ± 0.39
ERGMEVLCNYENKGL	0.918 ± 0.6
ERHMYMSCWFTNY	0.777 ± 0.21
ERIIRKAC	0.338 ± 1.4
ERMSRLCSQSGARRKCGAGC	1.01 ± 0.64
ERPSRN	0.22 ± 0.93
ERYSMLDGFGSDLNWIIYNN	0.978 ± 0.71
ESFILVFGGCCNWFGCVYLM	6.537 ± 0.06
ESFTPSRSTNVRI	-1.24 ± 0.94
ESLFPVCGEMTVTCPLSPTE	0.423 ± 1.4
ESMRFHRGEVGPLWDVRWGA	1.61 ± 0.78
ESQLVTAYEH	0.324 ± 1.1
ESRLLYSFRWVGERAVPSAN	0.4 ± 0.58

Substance	amyloid nucleation score
ESVTWSWE	0.505 ± 0.39
ETHGYFVYVFVCGRWAGMK	-0.114 ± 0.28
ETLSSFI	0.032 ± 0.28
ETNLFVLNVNNVLVVFWCPP	6.938 ± 0.046
ETRYPPRVNSVYTVWPMYLL	0.464 ± 0.43
EVADVGKMMIVVGDCRVFRW	5.593 ± 0.048
EVISPFQLSSDVGGMSRLGV	0.73 ± 0.72
EVMDTLYLLLVCRYFAKCIT	inactive
EVRLPQTYLVEWGTNQFRF	-0.504 ± 0.57
EVSHT	0.428 ± 0.25
EVYKHHYLA	0.044 ± 0.47
EVYVRRRVSIQKEGVLHAQK	0.907 ± 0.97
EWLLARMTISKRMMW	0.587 ± 0.29
EYICLLTDSCNDTVLFSCPR	-0.583 ± 0.83
EYRFVN	-0.227 ± 0.28
EYSVYDRYRPGNCCRTSRMD	0.251 ± 0.31
EYTGSEPYLLVQVSLLNQRV	inactive
FAFTIFPCYYWDLNCLRFQH	6.549 ± 0.047
FAGLSHWKPLDGTMGVGDRV	-0.526 ± 0.41
FAIFKSTIPINSVVWPIIMH	0.87 ± 0.3
FATYWVHDMAWRMSGVQMSV	0.307 ± 0.84
FAVSRVEMNLGL	-0.117 ± 0.34

Substance	amyloid nucleation score
FAWEVKTDYRWYNPWLGRAC	-0.838 ± 2.1
FAWGGFC	-0.155 ± 0.86
FCCMGDMYFCSDFQSVSLFL	8.454 ± 0.065
FCCNWSCNCLRMG	7.799 ± 0.051
FCFGGNVGRYLMVRPCVFGY	0.035 ± 0.71
FCHVRTL	-0.97 ± 1.7
FCNWAL	-0.18 ± 0.5
FCRDVSVYLDYLDGPRSGWS	-0.245 ± 0.35
FCRGKPRRLVP	-0.219 ± 0.67
FCRHLGLSS	1.25 ± 0.44
FCVGYRCWMYN	-0.086 ± 0.25
FCVRTEYSGGELAARSLDFA	0.498 ± 0.97
FCVRWILPLDISMGDRHSSE	0.592 ± 0.49
FCYYKCNESGP	-0.751 ± 0.71
FDANGVCSSITSCM	-0.359 ± 0.53
FDGFRGNG	0.487 ± 0.49
FDHSG	inactive
FDIVDANKGAAPGKTVYLWR	0.641 ± 0.93
FDTGGVRRRCACVSLYGVDV	0.027 ± 0.43
FDVGSFTGIGV	0.115 ± 0.77
FEGLVQL	inactive
FEGRGFKDNATQENNSEFAS	0.4 ± 0.46

Substance	amyloid nucleation score
FENDWNLINLLGF	1.49 ± 0.55
FERSW	inactive
FESTPLVGHTRASSRYCARF	-0.742 ± 2.1
FFCRFGILFSTKGFLGFMRF	1.01 ± 0.67
FFFNCMRWSCMKVDHTGFVG	-0.255 ± 0.47
FFGFCSSVES	0.662 ± 0.51
FFHSAYCFCNNLPMGLDLWS	5.81 ± 0.083
FFIDMCEL	-0.897 ± 0.53
FFILRNQRPIC	1.76 ± 0.2
FFLRSPFL	0.016 ± 0.41
FFMIRRMLVTGWARQCIPRY	-0.105 ± 0.75
FFMLGSSY	inactive
FFNYRVMKRHYSVYLCVGSM	1.18 ± 0.14
FFSKNT	-0.041 ± 0.26
FFTVSVYLHVRGVAYESAAA	0.252 ± 0.32
FFVLRLSLTFWSCKS	1.3 ± 0.56
FFVPSYLPFMMFHVLSCRDF	-0.417 ± 0.45
FFWLVAK	-1.18 ± 1.2
FFWNRWRRTQRANTMLMMRM	0.402 ± 0.68
FGDWGCRRRNVSA	-0.269 ± 0.37
FGEYSCGRREMPYCFLDYYL	0.356 ± 0.41
FGFTGLTSW	-0.146 ± 1.4

Substance	amyloid nucleation score
FGFVSPGPY	-0.611 ± 0.51
FGIIGEERNLRAAPMAGGRP	-0.455 ± 1.2
FGLYVYLPEGRHACVALRTV	-0.89 ± 0.88
FGNRFEYRFERTN	-0.482 ± 1.1
FGPMLHTLDLCWRGMWIS	-1.56 ± 2.7
FGPNVSFR	-0.638 ± 0.54
FGVNCNYCLILVQCMC	2.35 ± 0.52
FGVSVLCSEWGTPRFVCWVN	-0.6 ± 0.43
FGWGTLIGGLWTDNEQSLFT	-0.375 ± 0.49
FGWLFVCEVSAAGPPTLIWT	3.11 ± 0.15
FHMARKQETTSI	-0.18 ± 1.7
FHRNHRINNRMSMAYSC	0.059 ± 0.9
FHSLRLRLMRNYG	-0.31 ± 1.4
FHSMDEHVLLILTKNSV	0.317 ± 0.6
FIESVL	1.14 ± 0.67
FIGMTDPMSIDILLLSS	0.389 ± 0.58
FIKHGNLSAKQPVEKDLKLD	0.414 ± 0.46
FIMIDRPETLQPNLDGLKL	-0.524 ± 0.45
FIMVCGSKGLLVALGALE	-0.752 ± 1.3
FINLASVVSIVVLVT	4.24 ± 0.076
FINWLPNNDHFFCRNWICLQ	5.902 ± 0.05
FISNIFKMKMATQSGGLGVR	-0.789 ± 0.71
